Measured values taken from US20050202532A1, “Helical synthetic peptides that stimulate cellular cholesterol efflux” (The Regents of the University of California, published 2005).

Key:
[1] = target: ATP-binding cassette transporter A1 (ABCA1), endogenous in J774 macrophages (Homo sapiens (Human)) (UniProt O95477)
[2] = target: ATP-binding cassette transporter A1 (ABCA1), endogenous in J774 macrophages (Homo sapiens (Human), UniProt O95477); assay: cell-based or functional assay

Molecule | concentration giving maximal cholesterol efflux [1] | potency in mediating ABCA1-dependent cholesterol efflux against the 1/9 chimera [2]
full-length recombinant apoA-I (His-tagged) (from UniProt P02647) (ligand) | 10 µg/mL | –
Ac-PALEDLRQGLLPVLESFKVSFLSALEEYTKKLN-NH2 [9/10 peptide, aa 209-241 of apoA-I (33-mer)] | – | 2 fold (against the 1/9 chimera)
